According to paper PMC9186387:
Where two headings read alike, the source gives them in different places.

Assays:
[1] = target: C. crescentus full-length DriD (C. crescentus); assay: SEC
DriD(Y168A) = target: T1, DriD(Y168A) (Caulobacter crescentus, UniProt Q9A999 5-331, Y172A); assay: fluorescence polarization
T1 sequence: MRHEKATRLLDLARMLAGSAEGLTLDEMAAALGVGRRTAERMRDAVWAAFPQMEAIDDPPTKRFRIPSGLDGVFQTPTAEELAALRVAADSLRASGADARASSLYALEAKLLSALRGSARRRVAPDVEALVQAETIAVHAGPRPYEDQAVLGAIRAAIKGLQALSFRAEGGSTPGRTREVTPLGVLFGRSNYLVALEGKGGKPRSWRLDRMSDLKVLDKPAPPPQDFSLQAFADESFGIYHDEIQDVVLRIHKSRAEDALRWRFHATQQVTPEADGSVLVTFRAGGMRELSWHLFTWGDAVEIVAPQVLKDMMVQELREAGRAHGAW

[2] = target: T2, DriD(Y168A-R178A-Y192A-R204A) (Caulobacter crescentus, UniProt Q9A999 5-331, Y172A;R182A;Y196A;R208A); assay: fluorescence polarization
T2 sequence: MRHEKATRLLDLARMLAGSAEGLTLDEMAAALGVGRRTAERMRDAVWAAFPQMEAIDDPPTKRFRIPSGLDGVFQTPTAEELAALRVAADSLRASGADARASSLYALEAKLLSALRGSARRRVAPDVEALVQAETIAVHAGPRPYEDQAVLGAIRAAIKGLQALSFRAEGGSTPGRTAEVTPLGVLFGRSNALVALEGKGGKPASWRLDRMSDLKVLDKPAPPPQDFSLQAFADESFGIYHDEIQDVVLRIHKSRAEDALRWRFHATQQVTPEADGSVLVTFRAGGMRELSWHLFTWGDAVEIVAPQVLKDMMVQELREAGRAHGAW

[3] = target: T2, DriD(Y168A-R178A-Y192A-R204A); assay: fluorescence polarization; remark: listed apart in the source
DriD(R176A-R178A) = target: T3, DriD(R176A-R178A) (Caulobacter crescentus, UniProt Q9A999 5-331, R180A;R182A); assay: fluorescence polarization
T3 sequence: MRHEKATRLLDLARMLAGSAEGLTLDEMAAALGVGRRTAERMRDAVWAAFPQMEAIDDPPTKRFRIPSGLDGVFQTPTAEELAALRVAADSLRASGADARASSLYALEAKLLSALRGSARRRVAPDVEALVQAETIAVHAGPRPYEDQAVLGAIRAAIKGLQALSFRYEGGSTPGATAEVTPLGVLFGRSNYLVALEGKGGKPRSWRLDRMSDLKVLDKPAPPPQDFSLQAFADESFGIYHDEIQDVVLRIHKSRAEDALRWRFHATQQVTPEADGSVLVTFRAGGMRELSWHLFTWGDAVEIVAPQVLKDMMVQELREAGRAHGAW

C. crescentus full-length DriD (natural protein)
stoichiometry N [1]: 2

B1: DriD operator (optimized) (dsDNA)
DNA 1: ATACGACCGTTTCTGTCGCA
DNA 2: TGCGACAGAAACGGTCGTAT
Kd (DriD(Y168A)): 22.3 ± 7 nM
binding result [2]: no binding

TAGTCTACT (ssDNA) [9mer ssDNA (F-labelled)]
binding result [3]: no binding
binding result (DriD(R176A-R178A)): no binding
